Numbering of substitutions follows the chain as printed. Numbers in names are those of the source.

The record followed here is patent US10597674B2, “HPPD variants and methods of use” (BASF Agricultural Solutions Seed, US LLC, priority 2015, dated 2020).

In experiment [1] the test system is transgenic T1 soybean events. The experiment is described as follows: Field trials of T1 soybean events, leaf damage eight days after application. The class given is in vivo. The method, then:
Soybean plants expressing an HPPD inhibitor tolerant polypeptide of the present invention alone, or along with a gene conferring tolerance to glyphosate and/or a gene conferring tolerance to glufosinate or having a “plant expression cassette”, which includes only an HPPD inhibitor tolerant polypeptide of the present invention, were tested for tolerance to different HPPD inhibitor herbicide chemical classes. The transgenic plants were routinely analyzed for the expression and presence of the transgenes using the ELISA protein detection method (see detailed description under item D and H). Only plants recovering in the selection media and having a detectable HPPD transgene protein expression were regenerated, transferred to the greenhouse and used at V2-V4 growth stage for the HPPD inhibitor herbicide tolerance analysis of the T0 soybean events in the greenhouse (Example 6). The chemical formulation with HPPD inhibitor herbicides was supplemented with ammonium sulfate and methyl ester rapeseed oil. Herbicide tolerance evaluation was taken 5-21 days after spraying. The best performing independent T0 soybean events were selfed to produce T1 soybean seeds. In the field trails, the advanced T1 soybean seeds were planted and treated with either 210 g/ha of isoxaflutole or 150 g/ha of Cmpd.
In Table 10, the frequency of the soybean events showing a good tolerance, i.e. equal or less than 15% damage of the total leaf area are summarized

For experiment [2], the system named is E. coli cells expressing an HPPD polypeptide. The experiment is described as follows: Brown color bioassay in liquid culture, residual brown color formation (BCF), OD440 after 96 hours. The class given is cell-based. The conditions noted are these: Cmpd. 1 1000 μM, 96 hours. The essentials: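 E. coli expressing HPPD variants were grown at 30 degrees Celsius from OD600 0.3-0.5 in LB with 5 mM HPP, with or without herbicide (e.g. Cmpd. 1, 1000 μM). After 96 hours, supernatant OD440 was measured; residual brown colour formation compares pigment with and without inhibitor.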

In experiment [3] the test system is HPPD polypeptides (wild-type SEQ ID NO:1 and mutants). The conditions noted are these: different HPPD inhibitor herbicide chemical classes.
The subject of experiment [4] is E. coli cells expressing an HPPD polypeptide. The experiment is described as follows: Brown Color Assay on solid LB-agar, visual score of brown pigment. The conditions noted are these: for brown coloring compared with SEQ ID NO: 2, in words: 25, 50, 100, 250 and 500 μM Cmpd. 1. The arrangement: key to brown pigment formation: +++: a dark brown coloring as seen for E. coli cells expressing one of the respective mutant HPPD polypeptide without inhibitor; ++: medium brown pigmentation; +: light brown pigmentation; 0: no brown pigmentation development was detected on the LB agar plates. The class given is cell-based. The method, then:
Mutant HPPD polypeptides were analyzed using a brown color assay (WO2014/043435). Bacterial cells expressing the mutant HPPD polypeptide according to the invention were assayed in 96 well format for HPPD inhibitor tolerance by spotting on solid media containing LB-agar, selection agent for the expression vector pSE420(RI)NX (WO2014/043435), 5 mM tyrosine (Sigma-Aldrich, St. Louis, USA), 42 mM succinate (Sigma-Aldrich, St. Louis, USA) and six different concentrations of the HPPD inhibitor herbicide Cmpd. 1 (0-500 μM). In the brown color assay, an overnight culture of the E. coli cells expressing one of the respective mutant HPPD polypeptides were diluted to an OD600 of 1 and 10 μl extract was spotted in triplicates on plates containing 0, 25, 50, 100, 250, or 500 μM of Cmpd. 1. Plates were covered with airpore tape and incubated at 30 degrees C. After 24 hours, the cells were kept in darkness at room temperature and after 7 days the brown pigment formation was scored visually. In the presence of an HPPD inhibitor herbicide, this pigment formation is inhibited and the color of the agar plate will not alter, unless an HPPD inhibitor herbicide tolerant HPPD polypeptide is expressed and active. […] The “++” and “+” scores a medium and light brown pigmentation, respectively, and the “0” means that no brown pigmentation development was detected on the LB agar plates.

The subject of experiment [5] is transgenic soybean T0 events. The experiment is described as follows: Greenhouse spray test of T0 soybean events, herbicide tolerance rating 0-3. The class given is in vivo. The conditions noted are these: Cmpd. 1 300 g AI/ha, five days. The method, then:
Tolerant green shoots were transferred to rooting media or grafted. Rooted plantlets were transferred to the greenhouse after an acclimation period. Plants containing the transgene were then sprayed with HPPD inhibitor herbicides, as for example with mesotrione at a rate of 300-600 g AI/ha, or with Cmpd. […] Five to ten days after the application, the symptoms due to the application of the herbicide were evaluated and compared to the symptoms observed on wild-type plants under the same conditions.
For example, T0 soybean plants having a “plant expression cassette”, which includes an HPPD inhibitor tolerant HPPD polypeptide of the present invention, were tested towards the tolerance of Cmpd. 1.
Prior greenhouse trials with the transgenic plants, soybean transformants were routinely analyzed for the expression and presence of the transgenes using the ELISA protein detection method (see detailed description under item D and H). Only plants recovering in the selection media and having a detectable HPPD transgene protein expression were used for the herbicide tolerance analysis. A DeVries Tracker Sprayer was calibrated prior to each spraying. The chemical formulation used for Cmpd. 1 was supplemented with ammonium sulfate and methylated rape seed oil. Spray tests were conducted with a concentration, which equals to 300 grams AI per hectare (300 g AI/ha). Tolerance was evaluated 5 days after spraying. […] A rating of “3” was assigned to plants showing good tolerance, i.e. less than 10% of the leaf area from the top three trifoliate leaves showing chlorosis or only very slight bleaching.

Experiment [6] has as its system transgenic soybean T0 events. The experiment is described as follows: Additional greenhouse trials of T0 soybean events, leaf damage score 0-100 as percentiles. The class given is in vivo. The conditions noted are these: Cmpd. 1 300 g AI/ha, five days. In short, it runs like this:
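Independent T0 events (21 to 94 per construct, single cassette insertion) expressing mutant HPPD were sprayed with HPPD inhibitor herbicide in the greenhouse. Leaf damage scored 5 days after application from 0 (no damage) to 100 (complete bleaching). Scores reported as percentile distributions (25th, median, 75th) per construct.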

Where [7] appears, read: 150 g/ha Cmpd. 1, stage V2-V4, eight days after application.
Setting [8] is: 210 g/ha isoxaflutole, stage V2-V4, eight days after application.
[9] abbreviates: 25 μM Cmpd. 1, scored after 7 days.
Setting [10] is: 50 μM Cmpd. 1, scored after 7 days.
Setting [11] is: 100 μM Cmpd. 1, scored after 7 days.
The mark [12] stands for this setting: 250 μM Cmpd. 1, scored after 7 days.
Where [13] appears, read: 500 μM Cmpd. 1, scored after 7 days.

On to `CS(=O)(=O)c1cc(C(F)(F)F)ccc1C(=O)c1cnoc1C1CC1` [isoxaflutole, (5-cyclopropyl-4-isoxazolyl)[2-(methylsulfonyl)-4-(trifluoromethyl)phenyl]methanone, reference compound], for which the leaf damage in experiment [1] (wild-type or segregated T1 soybean plants without tolerant polypeptide, 210 g/ha isoxaflutole or 150 g/ha Cmpd. 1, eight days) stood at 100%.

B1: SEQ ID NO:1 (protein, listed as Pseudomonas fluorescens)
chain: MADLYENPMGLMGFEFIEFASPTPGTLEPIFEIMGFTKVATHRSKNVHLYRQGEINLILNNEPNSIASYFAAEHGPSVCGMAFRVKDSQKAYNRALELGAQPIHIDTGPMELNLPAIKGIGGAPLYLIDRFGEGSSIYDIDFVYLEGVERNPVGAGLKVIDHLTHNVYRGRMVYWANFYEKLFNFREARYFDIKGEYTGLTSKAMSAPDGMIRIPLNEESSKGAGQIEEFLMQFNGEGIQHVAFLTDDLVKTWDALKKIGMRFMTAPPDTYYEMLEGRLPDHGEPVDQLQARGILLDGSSVEGDKRLLLQIFSETLMGPVFFEFIQRKGDDGFGEGNFKALFESIERDQVRRGVLTAD
modifications: 4-hydroxyphenylpyruvate dioxygenase (HPPD; Pseudomonas fluorescens) (1)..(358)
For B1, the “brown pigmentation in the presence of the HPPD inhibitor, in words” value in experiment [2] is “did not produce a substantial brown pigmentation”. Further, the “character of inhibition by HPPD inhibitor herbicides (time-course)” value in experiment [3] is “slow and tight binding inhibitor”. For the same molecule, in experiment [4] (25 μM Cmpd. 1), the “brown pigmentation, in words” value was “do not produce any brown pigmentation”.

B2: SEQ ID NO:104 (protein)
chain: B1 chain with R213K, M264L, P268G, T270E, E335P, G336H, N337S, A340V, S344Q, I345M
modifications: mutant HPPD polypeptide
In the case of B2, the “brown coloring compared with SEQ ID NO: 2, in words” value in experiment [4] is listed as “stronger brown coloring”.

B3: SEQ ID NO: 16: mutant HPPD polypeptide: P268S T270S E335P G336D N337S A340V I345K (protein)
chain: B1 chain with P268S, T270S, E335P, G336D, N337S, A340V, I345K
modifications: mutant HPPD polypeptide
notes: mutant HPPD polypeptide: P268S T270S E335P G336D N337S A340V I345K
B3: in experiment [1] (setting [7]), the “Frequency in the population (events with ≤15% leaf damage)” value is reported as 95% and the “Independent events with ≤15% leaf damage after spray” value was 19. Moreover, in experiment [1] (setting [8]), the “Frequency in the population (events with ≤15% leaf damage)” value is recorded as 95% and the “Independent events with ≤15% leaf damage after spray” value was 19.

B4: SEQ ID NO:2 (protein)
chain: B1 chain with E335P, G336W, K339A, A340Q
modifications: mutant HPPD polypeptide
Take B4: the “proportion of T0 soybean events with less than 10% leaf damage” value in experiment [5] was 54%. Further, in experiment [5] (less than 50% leaf damage), the “Percentage events rated “2 & 3”” value is reported as 83%.

B5: 96 (protein)
chain: B1 chain with R213K, P268G, T270E, E335P, G336H, N337S, A340V, I345V
modifications: mutant HPPD polypeptide
In the case of B5, the “brown coloring compared with SEQ ID NO: 2, in words” value in experiment [4] is recorded as “stronger brown coloring”.

B6: SEQ ID NO: 1: reference wild-type Pseudomonas fluorescens HPPD polypeptide (protein, listed as Pseudomonas fluorescens)
chain: B1 chain
modifications: 4-hydroxyphenylpyruvate dioxygenase (HPPD; Pseudomonas fluorescens) (1)..(358)
For the molecule B6, the brown pigment formation in experiment [4] (setting [9]), in experiment [4] (setting [10]), in experiment [4] (setting [11]), in experiment [4] (setting [12]) and in experiment [4] (setting [13]) was 0 throughout.

B7: 32 (protein)
chain: B1 chain with P268R, T270E, E335P, G336H, N337S, A340V, I345V
modifications: mutant HPPD polypeptide
As for B7, in experiment [4], the “brown coloring compared with SEQ ID NO: 2, in words” value is given as “stronger brown coloring”.

B8: SEQ ID NO: 104: mutant HPPD polypeptide: R213K M264L P268G T270E E335P G336H N337S A340V S344Q I345M (protein)
chain: B1 chain with R213K, M264L, P268G, T270E, E335P, G336H, N337S, A340V, S344Q, I345M
modifications: mutant HPPD polypeptide
notes: mutant HPPD polypeptide: R213K M264L P268G T270E E335P G336H N337S A340V S344Q I345M
Take B8: the “leaf damage score, Interquartile range” value in experiment [6] (75th minus 25th percentile) was 15.0. Besides, in experiment [6] (scale 0 (no damage) to 100 (complete bleaching)), the “leaf damage score, 25th percentile” value amounted to 5.0. Also, the “leaf damage score, 75th percentile” value in experiment [6] (scale 0-100) is reported as 20.0. For the same molecule, the “leaf damage score, 90th percentile” value in experiment [6] (scale 0-100) was found to be 72.5. Besides, the “leaf damage score, Median” value in experiment [6] (scale 0-100) is on record as 15.0. Also, the brown pigment formation entry in experiment [4] (setting [9]) is recorded as “+++”; in experiment [4] (setting [10]) it was “+++”; in experiment [4] (setting [11]), “+++”; in experiment [4] (setting [12]), “++”; in experiment [4] (setting [13]) it was “++”.

B9: SEQ ID NO: 103 (protein)
chain: MADLYENPMGLMGFEFIEFASPTPGTLEPIFEIMGFTKVATHRSKNVHLYRQGEINLILNNEPNSIASYFAAEHGPSVCGMAFRVKDSQKAYNRALELGAQPIHIDTGPMELNLPAIKGIGGAPLYLIDRFGEGSSIYDIDFVYLEGVERNPVGAGLKVIDHLTHNVYRGRMVYWANFYEKLFNFREARYFDIKGEYTGLTSKAMSAPDGMIKIPLNEESSKGAGQIEEFLMQFNGEGIQHVAFLTDDLVKTWDALKKIGMRFLTAPGDEYYEMLEGRLPDHGEPVDQLQARGILLDGSSVEGDKRLLLQIFSERLMGPVFFEFIQRKGDDGFGPHSFKVLFEQMERDQVRRGVLTAD
modifications: mutant HPPD polypeptide
Regarding B9, the brown pigment formation result in experiment [4] (setting [9]) is given as “++”; in experiment [4] (setting [10]) it was “++”; in experiment [4] (setting [11]), “++”; in experiment [4] (setting [12]), “+”; in experiment [4] (setting [13]) it was 0.
